Patent US20220073613A1, “ACTIVATABLE MASKED ANTI-CTLA4 BINDING PROTEINS” (Xilio Development, Inc., priority 2018, published 2022)

What was measured:
MC38 tumors [1] = experiment: MC38 mouse colorectal carcinoma model, tumor and Treg analysis (Example 4B); assay type: in vivo, C57BL/6 mice
Protocol: The effects of activatable masked anti-CTLA4 antibodies on tumor growth as well as immune parameters in the tumor and in the periphery were investigated using a MC38 mouse colorectal carcinoma model, previously shown to respond to treatment with the 9D9 antibody. See Peggs K. S. et al., J Exp Med., 206:1717-1725, (2009) and Selby M. J., et al., Cancer Immunol Res., 1:32-42, (2013).
To assess anti-tumor efficacy, antibodies formulated in PBS were administered intraperitoneally (i.p.) on day 1 post-randomization at […] per dose in a volume of ≤250 μL. Tumor volumes were determined twice weekly. All mice were monitored individually and sacrificed upon either tumor volume reaching 1500 mm3 or 45 days post-randomization. To assess biological function of antibodies on regulatory T cells (Tregs) by FACS analysis as described below, tumor-bearing mice were administered antibody intraperitoneally on days 1, 4, and 8 post-randomization at […] per dose in a volume of ≤250 μL. The control antibody was muIgG2a (BioXcell). All mice were sacrificed on day 9; tumor and spleen were harvested for FACS analysis.
Mouse tumor samples were dissociated according to standard protocol by Tumor Dissociation Kit (gentleMACS) and passed through a 70 μm cell strainer. Spleen samples were dissociated with the back of a syringe in a 70 μm cell strainer. Red blood cells were lysed with ACK buffer (Lonza). Final cell suspensions were washed and resuspended in Staining Buffer (PBS pH 7.4, 2.5% FBS, 0.09% NaN3) at 2×10^7 cells/mL. Cells were treated with Mu Trustain fcX (BioLegend) to block Fc receptors prior to being stained with antibodies against CD45 (BioLegend), CD3 (BioLegend), CD4 (BioLegend), CD8 (BD Biosciences), CD25 (BioLegend), and Live/Dead Aqua (ThermoFisher). For intracellular staining, cells were fixed, permeabilized, and stained with antibodies against FoxP3 (eBioscience) and Ki-67 (eBioscience). Single color stains and FMOs were run for gating purposes.

[2] = biological target: murine CTLA4 (muCTLA4hsIgG protein); experiment: Low density antigen binding ELISA, with MMP2 activation (Example 3B)
murine CTLA4 (muCTLA4hsIgG protein), sequence (P09793 36-161 limits assumed): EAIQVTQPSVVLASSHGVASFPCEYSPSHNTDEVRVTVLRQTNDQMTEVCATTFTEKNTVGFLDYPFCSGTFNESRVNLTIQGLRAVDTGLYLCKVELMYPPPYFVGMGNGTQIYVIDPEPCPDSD
Protocol: All ELISA were performed in a manner substantially similar to the description below or generally consistent with methods known in the art. Polysterene 96-well microplates (Thermo Fisher Scientific) were coated with 3 ng muCTLA4hsIgG protein (Abcam) per well and stored overnight at 4° C. Plates were washed with 0.1% Tween in TBS (TBS-T), blocked with 1% BSA (Fisher) in PBS for 2 hours at 4° C., and washed with TBS-T. Serial dilutions of tested antibody in 0.05% Tween+1% BSA in PBS (PBS-TB) were added to the plate and incubated at room temperature for 1 hour. After washing with TBS-T, HRP-conjugated goat anti-mouse Kappa light chain antibody (Abcam) diluted 1:4000 in PBS-TB was applied to the wells and incubated at room temperature for 1 hour. Plates were washed with TBS-T, chemiluminescent HRP substrate was applied to plate, and luminescence was recorded using a spectrophotometer (Synergy HT, BioTek). Data was analyzed with GraphPad Prism, version 7.02.
Parental anti-CTLA4 antibodies, masked anti-CTLA4 antibodies, and non-cleavable masked anti-CTLA4 antibodies were each diluted to 1 μM solution in cleavage buffer (150 mM NaCl; 50 mM Tris, pH 7.5; 10 mM CaCl2; 0.02% NP-40). Recombinant MMP2 (R&D Systems) activated with 1 mM p-aminophenylmercuric acetate […] for 1 hour at 37° C. was added to each antibody solution to a final concentration of 4 nM and incubated overnight at 37° C. […]

murine CTLA4-Fc = biological target: T1, murine CTLA4-Fc (Mus musculus, UniProt P09793); experiment: ELISA binding to murine CTLA4-Fc, with MMP2 cleavage (Example 3A); settings: MMP2, 37° C. overnight
T1 construct: purchased R&D Systems
T1 sequence (P09793 with tags, fused parts or gaps limits assumed): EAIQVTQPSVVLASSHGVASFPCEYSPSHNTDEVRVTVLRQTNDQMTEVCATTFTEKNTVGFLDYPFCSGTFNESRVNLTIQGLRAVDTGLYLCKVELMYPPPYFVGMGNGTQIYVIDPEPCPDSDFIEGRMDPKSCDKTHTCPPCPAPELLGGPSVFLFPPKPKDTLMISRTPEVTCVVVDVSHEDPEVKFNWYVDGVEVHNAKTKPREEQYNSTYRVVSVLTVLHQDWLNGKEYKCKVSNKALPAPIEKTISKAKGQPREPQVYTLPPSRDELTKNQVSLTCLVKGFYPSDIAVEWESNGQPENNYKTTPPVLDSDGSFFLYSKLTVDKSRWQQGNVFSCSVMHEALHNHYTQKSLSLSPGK
Protocol: ELISA plates were coated overnight in TBS with murine CTLA4-Fc (R&D Systems) and then washed with TBS with 0.05% Tween 20, and blocked with 1% BSA in PBS followed by washing with TBS with Tween 20. Dilutions of parental anti-CTLA4 antibodies and masked anti-CTLA4 antibodies in PBS were allowed to bind to CTLA4 for 60 minutes before washing with TBS Tween 20. Binding was detected with anti-muKappa-HRP (Abcam) and Super Signal Pico Chemiluminescent Substrate. Masked ratio was determined from the EC50 precleavage masked anti-CTLA4 antibody to the EC50 for parental anti-CTLA4 antibody.
Parental anti-CTLA4 antibodies and masked anti-CTLA4 antibodies were incubated with 6 nM of MMP2 (R&D Systems) in 150 mM NaCl, 50 mM Tris, pH 7.5, 10 mM CaCl2, 0.02% NP-40) at 37° C. overnight. Antibody dilutions were tested for binding to murine CTLA4-Fc by the ELISA described above and by reduced-SDS-PAGE analysis, using “Any Kd Stain-Free pre-cast polyacrylamide gels” (Bio-Rad).

MC38 tumors [3] = experiment: MC38 tumor eradication and T cell population analysis (Example 4A); assay type: in vivo, C57Bl/6 mice
Protocol: C57Bl/6 mice with 50-100 mm^3 MC38 tumors were administered intraperitoneally a single dose of 200 μg of IgG2a control (BioXcel), parental anti-CTLA4 antibody reactive to murine CTLA4 (9D9.IgG2a, light chain comprising SEQ ID NO:237, heavy chain comprising SEQ ID NO:319), activatable masked anti-CTLA4 antibody reactive to murine CTLA4 (light chain comprising SEQ ID NO:238, heavy chain comprising SEQ ID NO:319), masked anti-CTLA4 antibody 1005 reactive to murine CTLA4 (light chain comprising SEQ ID NO:240, heavy chain comprising SEQ ID NO:319), or anti-CTLA4 antibody 1 cross-reactive with human CTLA4 and murine CTLA4 (light chain comprising SEQ ID NO:327, heavy chain comprising SEQ ID NO:366). Body weight and tumor size were measured biweekly.
C57Bl/6 mice with 50-100 mm^3 MC38 tumors were dosed with three […] doses on day 1, 4, and 8 with IgG2a control (BioXcel), parental anti-CTLA4 antibody (9D9.IgG2a, light chain comprising SEQ ID NO:237, heavy chain comprising SEQ ID NO:319 masked anti-CTLA4 antibody 2 (light chain comprising SEQ ID NO:238, heavy chain comprising SEQ ID NO:319), masked anti-CTLA4 antibody 1005 (light chain comprising SEQ ID NO:240, heavy chain comprising SEQ ID NO:319), or anti-CTLA4 antibody 1 cross-reactive with human CTLA4 and murine CTLA4 (light chain comprising SEQ ID NO:327, heavy chain comprising SEQ ID NO:366). On day 9, mice were sacrificed and tumors were dissociated using gentleMACS™ protocol “Tumor Dissociation Kit” (Milteni) and filtered through a 70 micron cell strainer and rinsed twice in PBS/2.5% FBS buffer to remove enzymatic buffer. […] and spleen cells were dissociated by gently grinding the tissue across a mesh. Red blood cells were lysed with ACK buffer (Thermo Fisher) prior to staining of the cells. Staining of cells was with fluorescently labeled anti-CD45 (BioLegend), anti-CD3 (BioLegend), anti-CD4 (BioLegend), anti-CD8 (BD Biosciences), anti-CD25 (BioLegend). Prior to staining with anti-FoxP3 (eBioscience), and anti-Ki67 (eBioscience) the cells were permeabilized. Stained cells were analyzed by fluorescent activate cell sorting (FACS) for the percentages of CD4+, CD8+, and CD25 Foxp3+(Tregs) cells of the live (Live/Dead Aqua purchased from Life) CD45 positive cells, as well as the percentage of these three cell populations that were Ki67 positive, a marker of cell proliferation.

[4] = multi-dose, compared to parental antibody (9D9.IgG2a)

EC50 ([2]; treated with recombinant MMP2): 0.29 ± 0.03 nM
fold lower binding to murine CTLA4 as compared to parental anti-CTLA4 antibody ([2]; without protease, listed as Masked 9D9): approximately 156 fold
binding to murine CTLA4 after protease activation (murine CTLA4-Fc): fully restored binding
B1: activatable masked anti-CTLA4 antibody: 9D9 masked with CNLIVEGHC via MMP2/7/9 cleavable linker; light chain SEQ ID NO:238, heavy chain SEQ ID NO:319 (antibody)
heavy: EAKLQESGPVLVKPGASVKMSCKASGYTFTDYYMNWVKQSHGKSLEWIGVINPYNGDTSYNQKFKGKATLTVDKSSSTAYMELNSLTSEDSAVYYCARYYGSWFAYWGQGTLITVSSAKTTAPSVYPLAPVCGDTTGSSVTLGCLVKGYFPEPVTLTWNSGSLSSGVHTFPAVLQSDLYTLSSSVTVTSSTWPSQSITCNVAHPASSTKVDKKIEPRGPTIKPCPPCKCPAPNLLGGPSVFIFPPKIKDVLMISLSPIVTCVVVDVSEDDPDVQISWFVNNVEVHTAQTQTHREDYNSTLRVVSALPIQHQDWMSGKEFKCKVNNKDLPAPIERTISKPKGSVRAPQVYVLPPPEEEMTKKQVTLTCMVTDFMPEDIYVEWTNNGKTELNYKNTEPVLDSDGSYFMYSKLRVEKKNWVERNSYSCSVVHEGLHNHHTTKSFSRTPGK
light: ACNLIVEGHCGGSVPLSLYSGGGDIVMTQTTLSLPVSLGDQASISCRSSQSIVHSNGNTYLEWYLQKPGQSPKLLIYKVSNRFSGVPDRFSGSGSGTDFTLKISRVEAEDLGVYYCFQGSHVPYTFGGGTKLEIKRADAAPTVSIFPPSSEQLTSGGASVVCFLNNFYPKDINVKWKIDGSERQNGVLNSWTDQDSKDSTYSMSSTLTLTKDEYERHNSYTCEATHKTSTSPIVKSFNRNEC
proliferating (Ki67+ FOXP3+) Tregs in the spleens (MC38 tumors [1]; doses on days 1, 4, and 8, 24 hours after last dose): marginal increases
intratumoral Treg abundance (MC38 tumors [1]; doses on days 1, 4, and 8, 24 hours after last dose, flow cytometry): as effective in reducing Tregs as parental anti-CTLA4 antibody
growth of subcutaneously implanted MC38 tumors (MC38 tumors [1]; i.p. on day 1 post-randomization): induced tumor regression
proliferation of CD4+ cells in the periphery (spleen), % Ki67+ (MC38 tumors [3]; [4]): reduced proliferation
proliferation of CD8+ T cells in the periphery (spleen), % Ki67+ (MC38 tumors [3]; [4]): reduced proliferation
tumor volume (MC38 tumors [3]; single dose of 200 μg intraperitoneally): equivalent efficacy in reducing tumor volume
regulatory T lymphocytes (Tregs) population in the tumor (MC38 tumors [3]; three doses on day 1, 4, and 8, day 9): preferentially depleted
